According to patent US20150299335A1 (X BODY, published 2015):

Tests used:
HER2 [1] = biological target: T1, HER2 (UniProt P04626 23-652, limits assumed); test: surface plasmon resonance (Biacore Kinetics), table under the sensorgrams [table at the bottom]
T1 construct: also called receptor tyrosine-protein kinase erbB-2

HER2 [2] = biological target: T1, HER2; test: saturation binding curve, CPM against Her 2 (nM), 0 to 50 nM, plateau about 470 CPM; the text does not name the assay [left graph]
HER2 [3] = biological target: T1, HER2; test: saturation binding curve, CPM against Her 2 (nM), 0 to 50 nM, plateau about 470 CPM; the text does not name the assay [upper left graph]
HER2 [4] = biological target: T1, HER2; test: surface plasmon resonance (Biacore)

B1: B8 anti-HER2 VH domain (other)
VH: EVQLVESGAEVKEPGASVKVSCKSSGYSFTGNYMHWVRQAPGQGLEWMGWMNPKSGGTYYAQKFQGRVTMTWDTSISTAYMELSGLTSDDTAVYYCARWARGSTSPHGLDVWGQGTLVTVSS
notes: Stand-alone antibody VH domain with no light chain; also called B8 VH domain; B8 VH
- Kd (HER2 [1]): 1.2 nM
- koff (HER2 [1]): 0.000167 s⁻¹
- kon (HER2 [1]): 139000 M⁻¹ s⁻¹
- Kd (HER2 [2]): 1.4 nM
- Kd (HER2 [3]): 1.4 nM
- Kd (HER2 [4]): 1.2 nM
- kon (HER2 [4]): 139000 M⁻¹ s⁻¹
